Values quoted from earlier work, collected in PMC10167482.

Experiments:
IFNAR1 (Homo sapiens) = IFNAR1 (Homo sapiens) (UniProt P17181)
IFNAR2 (Homo sapiens) = IFNAR2 (Homo sapiens) (UniProt P48551)
UniProt P48551, sequence (P48551 27-243): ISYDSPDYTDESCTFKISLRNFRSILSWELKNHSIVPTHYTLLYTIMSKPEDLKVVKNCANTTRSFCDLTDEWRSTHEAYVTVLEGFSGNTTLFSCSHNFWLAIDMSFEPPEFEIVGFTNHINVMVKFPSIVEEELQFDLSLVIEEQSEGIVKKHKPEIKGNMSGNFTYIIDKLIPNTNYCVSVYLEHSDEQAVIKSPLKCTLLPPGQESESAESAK

UniProt P17181, sequence (P17181 28-436): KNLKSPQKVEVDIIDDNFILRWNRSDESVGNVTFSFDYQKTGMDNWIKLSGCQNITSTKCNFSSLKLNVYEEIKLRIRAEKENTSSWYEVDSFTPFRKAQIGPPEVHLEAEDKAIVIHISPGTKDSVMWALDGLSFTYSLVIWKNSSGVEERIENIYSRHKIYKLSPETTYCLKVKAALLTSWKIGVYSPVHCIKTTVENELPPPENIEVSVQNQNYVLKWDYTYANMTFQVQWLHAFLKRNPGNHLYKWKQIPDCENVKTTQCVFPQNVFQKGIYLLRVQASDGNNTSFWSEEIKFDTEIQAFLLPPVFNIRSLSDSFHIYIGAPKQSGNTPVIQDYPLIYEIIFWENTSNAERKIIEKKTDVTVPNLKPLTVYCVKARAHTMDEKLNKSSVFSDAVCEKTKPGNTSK

- Kd (IFNAR1 (Homo sapiens)): 50 nM
- Kd (IFNAR2 (Homo sapiens)): 0.2 nM
Substance: IFN-β (from UniProt P01574)
